Sequences and labels used below:
T1: Heparin-binding protein (HBP) (Homo sapiens, UniProt P20160 27-248)
T1 sequence: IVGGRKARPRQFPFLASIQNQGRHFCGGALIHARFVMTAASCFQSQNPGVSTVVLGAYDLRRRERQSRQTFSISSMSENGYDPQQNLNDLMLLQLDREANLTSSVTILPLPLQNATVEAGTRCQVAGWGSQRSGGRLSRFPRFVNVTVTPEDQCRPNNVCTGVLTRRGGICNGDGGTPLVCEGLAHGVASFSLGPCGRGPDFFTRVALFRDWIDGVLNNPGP

T2: C-reactive protein (CRP) (UniProt P02741 19-224)
T2 sequence: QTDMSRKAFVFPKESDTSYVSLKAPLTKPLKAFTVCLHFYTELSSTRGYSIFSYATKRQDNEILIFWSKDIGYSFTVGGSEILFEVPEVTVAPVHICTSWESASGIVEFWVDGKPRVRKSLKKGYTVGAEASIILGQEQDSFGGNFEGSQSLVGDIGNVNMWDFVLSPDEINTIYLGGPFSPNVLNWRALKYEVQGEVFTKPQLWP

T3: Serum amyloid A1 (SAA1) (UniProt P0DJI8 19-122)
T3 sequence: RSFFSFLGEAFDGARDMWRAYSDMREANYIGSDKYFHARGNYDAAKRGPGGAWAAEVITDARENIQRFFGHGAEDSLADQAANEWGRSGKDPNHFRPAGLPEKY

T4: Procalcitonin (PCT) (UniProt P01258 26-141)
T4 sequence: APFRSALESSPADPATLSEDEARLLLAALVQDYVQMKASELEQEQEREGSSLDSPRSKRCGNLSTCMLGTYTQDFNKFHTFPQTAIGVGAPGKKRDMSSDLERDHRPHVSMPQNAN

B1: Apt-13 (ssDNA)
DNA: TTCAGCACTCCACGCATAGCTCATCGCCTGCGACATGCTAGCATGCTTTACTACTGCCTATGCGTGCTACCGTGAA
B2: Apt-01 (ssDNA)
DNA: TTCAGCACTCCACGCATAGCTTCACCTACCGCAATCCGTTGCTCAGTGCTACCGCACCTATGCGTGCTACCGTGAA
B3: Apt-02 (ssDNA)
DNA: TTCAGCACTCCACGCATAGCTTCACCTACCGCGCAGCTCAGTCGTTGCCCACACGACCTATGCGTGCTACCGTGAA
B4: Apt-14 (ssDNA)
DNA: TTCAGCACTCCACGCATAGCTTCACCTACCGCCAATCAGCTCAGTGTGTCTCCACACCTATGCGTGCTACCGTGAA
B5: Apt-04 (ssDNA)
DNA: TTCAGCACTCCACGCATAGCTTCATCTACCCCGCCAAGGTCAGCCACGTCAGTGTGCCTATGCGTGCTACCGTGAA
B6: Apt-18 (ssDNA)
DNA: TTCAGCACTCCACGCATAGCTTTACCTACCGCATCGCTCAGTCAACCATTGGTGGACCTATGCGTGCTACCGTGAA
B7: Apt-03 (ssDNA)
DNA: TTCAGCACTCCACGCATAGCTTCACCTACGAACGCCAGTGACAGCACCGATCAGTGCCTATGCGTGCTACCGTGAA
B8: Apt-12 (ssDNA)
DNA: TTCAGCACTCCACGCATAGCTTCACCTACTGGCATATGCCTCAGTCCACTCCTGGACCTATGCGTGCTACCGTGAA
B9: Apt-09 (ssDNA)
DNA: TTCAGCACTCCACGCATAGCCTTGCCTACCGATCCTGGATCTCAGCTGTACCACAGCCTATGCGTGCTACCGTGAA
B10: Apt-08 (ssDNA)
DNA: B1 DNA with C28G, T29A, T36C, C38T, G41C, A43G, T55C
B11: Apt-07 (ssDNA)
DNA: TTCAGCACTCCACGCATAGCCTTGCCTACCGGACGAAGTACTCAGTCACTCCGTGACCTATGCGTGCTACCGTGAA
B12: Apt-15 (ssDNA)
DNA: TTCAGCACTCCACGCATAGCTTCACCTACTGCCCTAGCTCAGCCGTCTCCATCCGGCCTATGCGTGCTACCGTGAA
B13: Apt-05 (ssDNA)
DNA: TTCAGCACTCCACGCATAGCTTCACCTACACCGCGACCGCGTTCAGCCTCTGCAGGCCTATGCGTGCTACCGTGAA
B14: Apt-20 (ssDNA)
DNA: TTCAGCACTCCACGCATAGCTTCACCTACCGCCGAAGGCTCAGTCCGTGCTTCGGACCTATGCGTGCTACCGTGAA

Substitutions are numbered along the chain they refer to.

The first data set addresses T1, Heparin-binding protein (HBP). As to the kind of experiment: SPR; HBP immobilized, PBS, 25 C; SPR: Biacore T200, CM5 with 815 RU HBP, aptamer 0-1 uM in PBS (NaCl 137 mM, KCl 2.67 mM, Na2HPO4 10 mM, KH2PO4 2 mM, pH 7.4; composition given for CD), 25 C; flow: 500 nM aptamer, PBS, room temperature, 60 min. Particulars: protein: commercial; label: FAM in flow cytometry. On the technique in general: Surface plasmon resonance follows binding to a sensor surface in real time, without labels.
As a reminder, the Kd is the equilibrium constant for the complex coming apart. A higher Kd goes with weaker binding. As to B1, the dissociation constant Kd amounted to 1.04 nM. That is a single-digit nanomolar value.
In turn, B2 came in with a Kd of 3.42 nM.
On the same count and under the same terms, for B3 the value was 1.44 nM.

For the next data set the target is unchanged. The data set is described as follows: SPR; SPR: Biacore T200, CM5 with 815 RU HBP, aptamer 0-1 uM in PBS (NaCl 137 mM, KCl 2.67 mM, Na2HPO4 10 mM, KH2PO4 2 mM, pH 7.4; composition given for CD), 25 C; flow: 500 nM aptamer, PBS, room temperature, 60 min. Particulars: protein: commercial.
For the molecule B4, the binding signal is 50.3 RU.
B5 registered a binding signal of 121 RU.
In the case of B6, the binding signal stood at 41.2 RU.
In turn, B7 had a binding signal of 119 RU.
In turn, B8 came in with a binding signal of 107 RU.
On to B9, for which the binding signal was 87.5 RU.
With B10, the binding signal turned out to be 79 RU.
As for B11, the binding signal is 76.2 RU.
Same read-out and setting: for B12 the value was 72.5 RU; for B13, 132 RU; for B14, 99 RU.

The data set is the same for the next values; noted with them: protein: commercial; label: FAM in flow cytometry.
Molecule B2 came in with a binding signal of 424 RU.
Still for that read-out and setting: for B3 the value was 162 RU.

The target in another data set is T2, C-reactive protein (CRP). As to the kind of experiment: flow cytometry (magnetic beads); 500 nM aptamer; SPR: Biacore T200, CM5 with 815 RU HBP, aptamer 0-1 uM in PBS (NaCl 137 mM, KCl 2.67 mM, Na2HPO4 10 mM, KH2PO4 2 mM, pH 7.4; composition given for CD), 25 C; flow: 500 nM aptamer, PBS, room temperature, 60 min. Particulars: protein: commercial; chain copies: 5; label: FAM in flow cytometry. Background: A flow cytometer gives signals particle by particle.
In the case of B1, the binding result is “no binding”.
On to B2, for which the binding result is reported as “no binding”.
B3: the binding result was “no binding”.

Another data set deals with Interleukin-6 (IL-6) (UniProt P05231 30-212). The description is as above. The note with it: protein: commercial; label: FAM in flow cytometry.
Chain of Interleukin-6 (IL-6) (P05231 30-212): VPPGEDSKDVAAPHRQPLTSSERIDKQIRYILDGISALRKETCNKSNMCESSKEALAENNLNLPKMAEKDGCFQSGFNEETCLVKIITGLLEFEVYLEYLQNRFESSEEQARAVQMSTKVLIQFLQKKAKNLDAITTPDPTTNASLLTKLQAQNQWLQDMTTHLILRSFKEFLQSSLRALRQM
On to B1, for which the binding result is recorded as “no binding”.
For the molecule B2, the binding result is recorded as “no binding”.
On the same count and under the same terms, under B3 stands “no binding”.

The next data set has as its target T3, Serum amyloid A1 (SAA1). The data set is described as above. Particulars: protein: commercial; label: FAM in flow cytometry.
On to B1, for which the binding result is listed as “no binding”.
Consider B2, for which the binding result was “no binding”.
Same read-out and setting: under B3 stands “no binding”.

The next data set deals with T4, Procalcitonin (PCT). The description is as above. The note with it: protein: commercial; label: FAM in flow cytometry.
Regarding B1, the binding result is “no binding”.
Still for that read-out and setting: for B2 the value was “no binding”; for B3, “no binding”.
